Laboratory results published in patent publication US5495006A, “Antiviral polynucleotide conjugates” (Allelix Biopharmaceuticals, Inc., priority 1993, dated 1996).

What was measured:
HSV-1 = test: Plaque reduction assay, HSV-1 in Vero cells; type: cell-based, herpes simplex virus type I; settings: for % Inhibition (plaque reduction, HSV-1 replication): Vero cells, estimation
Method: Specifically, monolayers of cells were pretreated by incubation with one of conjugates (III) and (IV), infected with various concentrations of HSV-1 (measured by plaque forming units, PFU) and the infected cells were then incubated in the presence of conjugate. Following incubation with the conjugate, the cells were stained using the conventional crystal violet staining method. Those portions of the cell monolayer appearing as clear, unstained areas were identified as dead, virally-infected cells (i.e. plaques), while those areas stained purple indicated viable cells. Thus, inhibition of the virus was determined by counting, using a dissecting microscope, the number of plaques. The number of plaques on a plate incubated in the presence of conjugate was compared to the number of plaques on a control plate incubated in the absence of conjugate and the extent of viral inhibition was thus determined.
Vero cells (African green monkey kidney cells, ATCC CCL 81) were seeded into a 96-well plate at a concentration of 2×10^4 cells per well in 50 μl of Dulbecco's modified eagle medium (DMEM, Gibco). The media was supplemented with 10% Nu-serum (Biomedical Products), penicillin (100 IU/ml), streptomycin ([…]) and gentamicin (0.02 mg/ml) obtained from Gibco. The cells were pretreated with polynucleotide conjugate (III) at concentrations of 1 μM and 10 μM by incubation for 24 hours at 37° C. and 5% CO2. Following the incubation, the culture medium was removed from the cells. […]
The media was removed from the cells and the cells were subsequently stained with crystal violet in 70% ethanol:formalin:acetic acid (20:2:1) solution and heat fixed. The average number of plaques per well of each test sample were counted using a dissecting microscope (10-40× magnification). Inhibition was determined as the difference between the number of plaques in the control sample (0 μM conjugate) and the number of plaques in the test sample. […]

[1] = tested on: HIV-1 Tat-derived peptide RKKRRQRRRPPQGS (Human immunodeficiency virus 1); test: EMSA
[2] = target: T1, HIV-1 Tat full-length (86 aa) (Human immunodeficiency virus 1, UniProt P04608 P04608:1-86); test: EMSA; pre-formed complex used for competition; settings: tags: American Bio-Technologies, Inc; label: 5'-32P; hairpin with UCU bulge and 6-nt loop
[3] = target: T2, HIV-1 Tat-derived peptide RKKRRQRRRPPQGS (Human immunodeficiency virus 1); test: EMSA; 10 mM Tris pH 7.5, 50 mM NaCl, 1 mM DTT, 1 mM EDTA, 23 C; 45.9% active RNA; settings: protein: synthetic; tags: synthetic peptide, American Peptide Co; HIV LAI isolate; label: 5'-32P; hairpin with UCU bulge and 6-nt loop
T2 chain: RKKRRQRRRPPQGS

[4] = target: T2, HIV-1 Tat-derived peptide RKKRRQRRRPPQGS; test: EMSA; 17.8% active RNA; settings: protein: synthetic; tags: synthetic peptide, American Peptide Co; HIV LAI isolate; label: 5'-32P; linker-bridged hairpin with UCU bulge
[5] = target: T1, HIV-1 Tat full-length (86 aa); test: EMSA; binds efficiently; settings: tags: American Bio-Technologies, Inc; label: 32P; cyclic dumbbell with UCU bulge
[6] = target: T2, HIV-1 Tat-derived peptide RKKRRQRRRPPQGS; test: EMSA; binds efficiently; settings: protein: synthetic; tags: synthetic peptide, American Peptide Co; HIV LAI isolate; label: 32P; cyclic dumbbell with UCU bulge
[7] = target: T2, HIV-1 Tat-derived peptide RKKRRQRRRPPQGS; test: EMSA; Tm 60 C; settings: protein: synthetic; tags: synthetic peptide, American Peptide Co; HIV LAI isolate; label: 5'-32P; linker-bridged hairpin
[8] = target: T2, HIV-1 Tat-derived peptide RKKRRQRRRPPQGS; test: EMSA; 40.1% active RNA; settings: protein: synthetic; tags: synthetic peptide, American Peptide Co; HIV LAI isolate; label: 5'-32P; linker-bridged hairpin with UCU bulge
[9] = target: T2, HIV-1 Tat-derived peptide RKKRRQRRRPPQGS; test: EMSA; 38.3% active RNA; settings: protein: synthetic; tags: synthetic peptide, American Peptide Co; HIV LAI isolate; label: 5'-32P; linker-bridged hairpin with UCU bulge
[10] = target: T2, HIV-1 Tat-derived peptide RKKRRQRRRPPQGS; test: EMSA; Tm 61 C; SEQ 2 in the listing appears to be printed 3'-5'; settings: protein: synthetic; tags: synthetic peptide, American Peptide Co; HIV LAI isolate; label: 5'-32P; bottom-linked duplex with UCU bulge

Q: “conjugate (III): 22-deoxyribonucleotide fully hybridized ICP4 DNA-binding site (SEQ ID NOS 6 and 7), strands joined by linker LA HO--(CH2)9--OH (chain 1 CGCTATCGTCCATACCGACCAC; chain 2 GTGGTCGGTATGGACGATAGCG; DNA, backbone not given here; strands joined by nonanediol linker)” was tested. Which “% Inhibition (plaque reduction, HSV-1 replication)” value (HSV-1; 1 μM conjugate) did it give?
A: 25%

Q: What about the “% Inhibition (plaque reduction, HSV-1 replication)” value (HSV-1; 10 μM conjugate) of the same molecule?
A: 50%

Q: What about the “Inhibition of HSV-1 (in words)” value (HSV-1; plaque reduction assay) of the same molecule?
A: inhibit HSV-1

Q: How did the Kd ([1]; linker D (hexaethylene glycol) replaces 6-nt loop between the two strands, 56.0% active RNA) turn out when “GGAGAUCUGAGCGCUCUCUCC [TAR conjugate 5D]” was run?
A: 0.66 nM

Q: With “GGAGAUCUGAGCGCUCUCUCC [TAR conjugate 5B]” as the molecule, how does the Kd ([1]; linker B (triethylene glycol) replaces 6-nt loop between the two strands, 42.6% active RNA) read?
A: 0.95 nM

Q: Does GGAGAUCUGAGCCUGGGAGCUCUCUCC (ssRNA) [TAR 27-mer (oligomer 4)] bind [2]?
A: binds

Q: And the Kd [3]?
A: 0.41 nM

Q: GGAGAUCUGAGCGCUCUCUCC (ssRNA, two coupled linkers C replace 6-nt loop between the two strands) [TAR conjugate 5CC] was tested. Which Kd [4] did it give?
A: 0.43 nM

Q: Does UCUCCUUCGGGAGAUCUGAGCCUGGGAGCUC (ssRNA, cyclic (T4 RNA ligase closed)) [cyclic TAR 31-mer (oligomer 13)] bind [5]?
A: binds

Q: Does UCUCCUUCGGGAGAUCUGAGCCUGGGAGCUC (ssRNA, cyclic (T4 RNA ligase closed)) [cyclic TAR 31-mer (oligomer 13)] bind [6]?
A: binds

Q: Does GGAGAUCUGAGCGCUCUCUCC (ssRNA, cyclic 21-mer, linker D at top and bottom of duplex) [cyclic TAR conjugate oligomer 15] bind [5]?
A: binds

B1: TAR conjugate structure 8 (ssRNA)
RNA: GGAGAUGAGCGCUCUCUCC
modifications: bulge UCU replaced by U-Lc-Lc (two C3 linkers between nt 6 and nt 9); loop closure shown only in structure drawing
Q: Which Kd [7] does the source give for B1 here?
A: 0.51 nM

Q: With GGAGAUCUGAGCGCUCUCUCC (ssRNA, linker A -O-(CH2)9-O- replaces 6-nt loop between the two strands) [TAR conjugate 5A] as the molecule, how does the Kd [8] read?
A: 0.71 nM

Q: With GGAGAUCUGAGCGCUCUCUCC (ssRNA, two coupled linkers B replace 6-nt loop between the two strands) [TAR conjugate 5BB] as the molecule, how does the Kd [9] read?
A: 1.13 nM

Q: GCUCUCUCCGGAGAUCUGAGC (ssRNA, chemical linker at bottom of duplex between the two strands) [TAR conjugate oligomer 9] was tested. Which Kd [10] did it give?
A: 2.2 nM
